Experimental data published in paper PMC12416549 (2024).

Target: T1, TNFR1 (Homo sapiens, UniProt P19438)
T1 chain: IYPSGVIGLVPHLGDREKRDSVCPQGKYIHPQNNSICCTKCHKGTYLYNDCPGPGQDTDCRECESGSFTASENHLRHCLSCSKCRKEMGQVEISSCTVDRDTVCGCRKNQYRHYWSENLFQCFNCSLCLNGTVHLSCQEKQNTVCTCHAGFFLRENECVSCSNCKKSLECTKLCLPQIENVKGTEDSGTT
Experiment: yeast display SC50

B1: E34I (designed binder)
chain: SMEEEVEKAAKEYEKKKKEAIEKHLEKLKAKDKIAAERFLKELEEAAKEYAKDEAKTMSEEEAKRRAKKYKEKVLLSELSEEEQKEIKEAEEKLVRTILKYVEEAAK
Question: B1 was tested. Which “apparent Kd (screen)” value did it give?
Answer: 0.446 nM

B2: A51H (designed binder)
chain: SMEEEVEKAAKEYEKKKKEAIEKHLEKLKAKDKEAAERFLKELEEAAKEYHKDEAKTMSEEEAKRRAKKYKEKVLLSELSEEEQKEIKEAEEKLVRTILKYVEEAAK
Question: How did the “apparent Kd (screen)” value turn out when B2 was run?
Answer: 0.49 nM

B3: E72W (designed binder)
chain: SMEEEVEKAAKEYEKKKKEAIEKHLEKLKAKDKEAAERFLKELEEAAKEYAKDEAKTMSEEEAKRRAKKYKWKVLLSELSEEEQKEIKEAEEKLVRTILKYVEEAAK
Question: Which “apparent Kd (screen)” value does the source give for B3 here?
Answer: 0.446 nM

B4: M58N (designed binder)
chain: SMEEEVEKAAKEYEKKKKEAIEKHLEKLKAKDKEAAERFLKELEEAAKEYAKDEAKTNSEEEAKRRAKKYKEKVLLSELSEEEQKEIKEAEEKLVRTILKYVEEAAK
Question: How did the “apparent Kd (screen)” value turn out when B4 was run?
Answer: 13.8 nM

B5: K11W (designed binder)
chain: SMEEEVEKAAWEYEKKKKEAIEKHLEKLKAKDKEAAERFLKELEEAAKEYAKDEAKTMSEEEAKRRAKKYKEKVLLSELSEEEQKEIKEAEEKLVRTILKYVEEAAK
Question: How did the “apparent Kd (screen)” value turn out when B5 was run?
Answer: 0.79 nM

B6: E92G (designed binder)
chain: SMEEEVEKAAKEYEKKKKEAIEKHLEKLKAKDKEAAERFLKELEEAAKEYAKDEAKTMSEEEAKRRAKKYKEKVLLSELSEEEQKEIKEAEGKLVRTILKYVEEAAK
Question: Which “apparent Kd (screen)” value does the source give for B6 here?
Answer: 1.54 nM

B7: E103D (designed binder)
chain: SMEEEVEKAAKEYEKKKKEAIEKHLEKLKAKDKEAAERFLKELEEAAKEYAKDEAKTMSEEEAKRRAKKYKEKVLLSELSEEEQKEIKEAEEKLVRTILKYVDEAAK
Question: B7 was tested. Which “apparent Kd (screen)” value did it give?
Answer: 0.79 nM

B8: E14Y (designed binder)
chain: SMEEEVEKAAKEYYKKKKEAIEKHLEKLKAKDKEAAERFLKELEEAAKEYAKDEAKTMSEEEAKRRAKKYKEKVLLSELSEEEQKEIKEAEEKLVRTILKYVEEAAK
Question: How did the “apparent Kd (screen)” value turn out when B8 was run?
Answer: 10.4 nM

B9: K41L (designed binder)
chain: SMEEEVEKAAKEYEKKKKEAIEKHLEKLKAKDKEAAERFLLELEEAAKEYAKDEAKTMSEEEAKRRAKKYKEKVLLSELSEEEQKEIKEAEEKLVRTILKYVEEAAK
Question: With B9 as the binder, how does the “apparent Kd (screen)” value read?
Answer: 0.446 nM

B10: R65E (designed binder)
chain: SMEEEVEKAAKEYEKKKKEAIEKHLEKLKAKDKEAAERFLKELEEAAKEYAKDEAKTMSEEEAKERAKKYKEKVLLSELSEEEQKEIKEAEEKLVRTILKYVEEAAK
Question: For B10, which “apparent Kd (screen)” value is on record?
Answer: 1.54 nM

B11: L43H (designed binder)
chain: SMEEEVEKAAKEYEKKKKEAIEKHLEKLKAKDKEAAERFLKEHEEAAKEYAKDEAKTMSEEEAKRRAKKYKEKVLLSELSEEEQKEIKEAEEKLVRTILKYVEEAAK
Question: With B11 as the binder, how does the “apparent Kd (screen)” value read?
Answer: 3.63 nM

B12: R65D (designed binder)
chain: SMEEEVEKAAKEYEKKKKEAIEKHLEKLKAKDKEAAERFLKELEEAAKEYAKDEAKTMSEEEAKDRAKKYKEKVLLSELSEEEQKEIKEAEEKLVRTILKYVEEAAK
Question: For B12, which “apparent Kd (screen)” value is on record?
Answer: 0.405 nM

B13: E83W (designed binder)
chain: SMEEEVEKAAKEYEKKKKEAIEKHLEKLKAKDKEAAERFLKELEEAAKEYAKDEAKTMSEEEAKRRAKKYKEKVLLSELSEEWQKEIKEAEEKLVRTILKYVEEAAK
Question: How did the “apparent Kd (screen)” value turn out when B13 was run?
Answer: 2.25 nM

B14: E37H (designed binder)
chain: SMEEEVEKAAKEYEKKKKEAIEKHLEKLKAKDKEAAHRFLKELEEAAKEYAKDEAKTMSEEEAKRRAKKYKEKVLLSELSEEEQKEIKEAEEKLVRTILKYVEEAAK
Question: B14 was tested. Which “apparent Kd (screen)” value did it give?
Answer: 0.446 nM

B15: Q84H (designed binder)
chain: SMEEEVEKAAKEYEKKKKEAIEKHLEKLKAKDKEAAERFLKELEEAAKEYAKDEAKTMSEEEAKRRAKKYKEKVLLSELSEEEHKEIKEAEEKLVRTILKYVEEAAK
Question: B15 was tested. Which “apparent Kd (screen)” value did it give?
Answer: 3.3 nM

B16: K52L (designed binder)
chain: SMEEEVEKAAKEYEKKKKEAIEKHLEKLKAKDKEAAERFLKELEEAAKEYALDEAKTMSEEEAKRRAKKYKEKVLLSELSEEEQKEIKEAEEKLVRTILKYVEEAAK
Question: Which “apparent Kd (screen)” value does the source give for B16 here?
Answer: 0.869 nM

B17: A55W (designed binder)
chain: SMEEEVEKAAKEYEKKKKEAIEKHLEKLKAKDKEAAERFLKELEEAAKEYAKDEWKTMSEEEAKRRAKKYKEKVLLSELSEEEQKEIKEAEEKLVRTILKYVEEAAK
Question: Which “apparent Kd (screen)” value does the source give for B17 here?
Answer: 20.2 nM

B18: M58E (designed binder)
chain: SMEEEVEKAAKEYEKKKKEAIEKHLEKLKAKDKEAAERFLKELEEAAKEYAKDEAKTESEEEAKRRAKKYKEKVLLSELSEEEQKEIKEAEEKLVRTILKYVEEAAK
Question: How did the “apparent Kd (screen)” value turn out when B18 was run?
Answer: 8.56 nM

B19: E44S (designed binder)
chain: SMEEEVEKAAKEYEKKKKEAIEKHLEKLKAKDKEAAERFLKELSEAAKEYAKDEAKTMSEEEAKRRAKKYKEKVLLSELSEEEQKEIKEAEEKLVRTILKYVEEAAK
Question: How did the “apparent Kd (screen)” value turn out when B19 was run?
Answer: 1.86 nM

B20: E7P (designed binder)
chain: SMEEEVPKAAKEYEKKKKEAIEKHLEKLKAKDKEAAERFLKELEEAAKEYAKDEAKTMSEEEAKRRAKKYKEKVLLSELSEEEQKEIKEAEEKLVRTILKYVEEAAK
Question: For B20, which “apparent Kd (screen)” value is on record?
Answer: 1.4 nM

B21: E92W (designed binder)
chain: SMEEEVEKAAKEYEKKKKEAIEKHLEKLKAKDKEAAERFLKELEEAAKEYAKDEAKTMSEEEAKRRAKKYKEKVLLSELSEEEQKEIKEAEWKLVRTILKYVEEAAK
Question: How did the “apparent Kd (screen)” value turn out when B21 was run?
Answer: 10.4 nM

B22: E3G (designed binder)
chain: SMGEEVEKAAKEYEKKKKEAIEKHLEKLKAKDKEAAERFLKELEEAAKEYAKDEAKTMSEEEAKRRAKKYKEKVLLSELSEEEQKEIKEAEEKLVRTILKYVEEAAK
Question: For B22, which “apparent Kd (screen)” value is on record?
Answer: 3 nM

B23: I87V (designed binder)
chain: SMEEEVEKAAKEYEKKKKEAIEKHLEKLKAKDKEAAERFLKELEEAAKEYAKDEAKTMSEEEAKRRAKKYKEKVLLSELSEEEQKEVKEAEEKLVRTILKYVEEAAK
Question: With B23 as the binder, how does the “apparent Kd (screen)” value read?
Answer: 3 nM

B24: A9G (designed binder)
chain: SMEEEVEKGAKEYEKKKKEAIEKHLEKLKAKDKEAAERFLKELEEAAKEYAKDEAKTMSEEEAKRRAKKYKEKVLLSELSEEEQKEIKEAEEKLVRTILKYVEEAAK
Question: With B24 as the binder, how does the “apparent Kd (screen)” value read?
Answer: 1.05 nM

B25: Y101S (designed binder)
chain: SMEEEVEKAAKEYEKKKKEAIEKHLEKLKAKDKEAAERFLKELEEAAKEYAKDEAKTMSEEEAKRRAKKYKEKVLLSELSEEEQKEIKEAEEKLVRTILKSVEEAAK
Question: How did the “apparent Kd (screen)” value turn out when B25 was run?
Answer: 0.956 nM

B26: H24K (designed binder)
chain: SMEEEVEKAAKEYEKKKKEAIEKKLEKLKAKDKEAAERFLKELEEAAKEYAKDEAKTMSEEEAKRRAKKYKEKVLLSELSEEEQKEIKEAEEKLVRTILKYVEEAAK
Question: How did the “apparent Kd (screen)” value turn out when B26 was run?
Answer: 2.73 nM

B27: K11F (designed binder)
chain: SMEEEVEKAAFEYEKKKKEAIEKHLEKLKAKDKEAAERFLKELEEAAKEYAKDEAKTMSEEEAKRRAKKYKEKVLLSELSEEEQKEIKEAEEKLVRTILKYVEEAAK
Question: For B27, which “apparent Kd (screen)” value is on record?
Answer: 0.49 nM

B28: E5M (designed binder)
chain: SMEEMVEKAAKEYEKKKKEAIEKHLEKLKAKDKEAAERFLKELEEAAKEYAKDEAKTMSEEEAKRRAKKYKEKVLLSELSEEEQKEIKEAEEKLVRTILKYVEEAAK
Question: With B28 as the binder, how does the “apparent Kd (screen)” value read?
Answer: 0.446 nM

B29: A67L (designed binder)
chain: SMEEEVEKAAKEYEKKKKEAIEKHLEKLKAKDKEAAERFLKELEEAAKEYAKDEAKTMSEEEAKRRLKKYKEKVLLSELSEEEQKEIKEAEEKLVRTILKYVEEAAK
Question: Which “apparent Kd (screen)” value does the source give for B29 here?
Answer: 7.78 nM

B30: A105Q (designed binder)
chain: SMEEEVEKAAKEYEKKKKEAIEKHLEKLKAKDKEAAERFLKELEEAAKEYAKDEAKTMSEEEAKRRAKKYKEKVLLSELSEEEQKEIKEAEEKLVRTILKYVEEQAK
Question: Which “apparent Kd (screen)” value does the source give for B30 here?
Answer: 0.593 nM

B31: A51V (designed binder)
chain: SMEEEVEKAAKEYEKKKKEAIEKHLEKLKAKDKEAAERFLKELEEAAKEYVKDEAKTMSEEEAKRRAKKYKEKVLLSELSEEEQKEIKEAEEKLVRTILKYVEEAAK
Question: B31 was tested. Which “apparent Kd (screen)” value did it give?
Answer: 9.41 nM

B32: Q84T (designed binder)
chain: SMEEEVEKAAKEYEKKKKEAIEKHLEKLKAKDKEAAERFLKELEEAAKEYAKDEAKTMSEEEAKRRAKKYKEKVLLSELSEEETKEIKEAEEKLVRTILKYVEEAAK
Question: How did the “apparent Kd (screen)” value turn out when B32 was run?
Answer: 11.4 nM

B33: L25I (designed binder)
chain: SMEEEVEKAAKEYEKKKKEAIEKHIEKLKAKDKEAAERFLKELEEAAKEYAKDEAKTMSEEEAKRRAKKYKEKVLLSELSEEEQKEIKEAEEKLVRTILKYVEEAAK
Question: With B33 as the binder, how does the “apparent Kd (screen)” value read?
Answer: 0.956 nM

B34: L76F (designed binder)
chain: SMEEEVEKAAKEYEKKKKEAIEKHLEKLKAKDKEAAERFLKELEEAAKEYAKDEAKTMSEEEAKRRAKKYKEKVLFSELSEEEQKEIKEAEEKLVRTILKYVEEAAK
Question: How did the “apparent Kd (screen)” value turn out when B34 was run?
Answer: 0.539 nM

B35: K16W (designed binder)
chain: SMEEEVEKAAKEYEKWKKEAIEKHLEKLKAKDKEAAERFLKELEEAAKEYAKDEAKTMSEEEAKRRAKKYKEKVLLSELSEEEQKEIKEAEEKLVRTILKYVEEAAK
Question: How did the “apparent Kd (screen)” value turn out when B35 was run?
Answer: 0.49 nM
